± gives the standard deviation of the averaged measurements.
Test: total protein half-life in vivo (active degradation + dilution); higher = more stable protein
[1] = E. coli NCM3722 delta-clpP delta-lon delta-hslV, growth: N-lim chemostat, doubling time 6 h
[2] = E. coli NCM3722 delta-clpP, growth: N-lim chemostat, doubling time 6 h
[3] = E. coli NCM3722 delta-hslV, growth: N-lim chemostat, doubling time 6 h
[4] = E. coli NCM3722 delta-lon, growth: N-lim chemostat, doubling time 6 h
[5] = E. coli NCM3722 delta-smpB, growth: N-lim chemostat, doubling time 6 h
[6] = wild type E. coli NCM3722, growth: C-lim chemostat, doubling time 3 h
[7] = wild type E. coli NCM3722, growth: C-lim chemostat, doubling time 6 h
[8] = wild type E. coli NCM3722, growth: C-lim chemostat, doubling time 12 h
[9] = wild type E. coli NCM3722, growth: N-lim chemostat, doubling time 6 h
[10] = wild type E. coli NCM3722, growth: N-lim chemostat, doubling time 12 h
[11] = wild type E. coli NCM3722, growth: P-lim chemostat, doubling time 6 h
[12] = wild type E. coli NCM3722, growth: P-lim chemostat, doubling time 12 h

| Sequence | total protein half-life in vivo [1] [h] | total protein half-life in vivo [2] [h] | total protein half-life in vivo [3] [h] | total protein half-life in vivo [4] [h] | total protein half-life in vivo [5] [h] | total protein half-life in vivo [6] [h] | total protein half-life in vivo [7] [h] | total protein half-life in vivo [8] [h] | total protein half-life in vivo [9] [h] | total protein half-life in vivo [10] [h] | total protein half-life in vivo [11] [h] | total protein half-life in vivo [12] [h] |
| --- | --- | --- | --- | --- | --- | --- | --- | --- | --- | --- | --- | --- |
| MKSLFKVTLLATTMAVALHAPITFAAEAAKPATAADSKAAFKNDDQKSAYALGASLGRYMENSLKEQEKLGIKLDKDQLIAGVQDAFADKSKLSDQEIEQTLQAFEARVKSSAQAKMEKDAADNEAKGKEYREKFAKEKGVKTSSTGLVYQVVEAGKGEAPKDSDTVVVNYKGTLIDGKEFDNSYTRGEPLSFRLDGVIPGWTEGLKNIKKGGKIKLVIPPELAYGKAGVPGIPPNSTLVFDVELLDVKPAPKADAKPEADAKAADSAKK | 6.63 ± 0.44 | 6.6 ± 0.35 | 6.58 ± 0.14 | 6.56 ± 0.067 | 5.9 ± 0.28 | 3.15 ± 0.053 | 6.68 ± 0.15 | 11.5 ± 0.64 | 5.86 ± 0.3 | 14 ± 2.2 | 6.04 ± 0.87 | 14.8 ± 1.6 |
| MKSLRLMLCAMPLMLTGCSTMSSVNWSAANPWNWFGSSTKVSEQGVGELTASTPLQEQAIADALDGDYRLRSGMKTANGNVVRFFEVMKGDNVAMVINGDQGTISRIDVLDSDIPADTGVKIGTPFSDLYSKAFGNCQKADGDDNRAVECKAEGSQHISYQFSGEWRGPEGLMPSDDTLKNWKVSKIIWRR | 5.96 ± 0.15 | 6.484 ± 0.023 | 7.579 ± 0.065 | – | 6.4 ± 0.55 | 3.24 ± 0.74 | 6.151 ± 0.0073 | 14.8 ± 0.17 | 6.63 ± 0.47 | – | 6.68 ± 0.71 | – |
| MKSNRQARHILGLDHKISNQRKIVTEGDKSSVVNNPTGRKRPAEK | 1.25 ± 0.066 | 0.873 | 1.04 ± 0.075 | 1.37 ± 0.39 | 0.657 | 1.64 ± 0.16 | 1.85 | 1.81 ± 0.55 | 1.08 | 1.74 ± 0.51 | 0.899 ± 0.2 | 1.34 ± 0.98 |
| MKSPAPSRPQKMALIPACIFLCFAALSVQAEETPVTPQPPDILLGPLFNDVQNAKLFPDQKTFADAVPNSDPLMILADYRMQQNQSGFDLRHFVNVNFTLPKEGEKYVPPEGQSLREHIDGLWPVLTRSTENTEKWDSLLPLPEPYVVPGGRFREVYYWDSYFTMLGLAESGHWDKVADMVANFAHEIDTYGHIPNGNRSYYLSRSQPPFFALMVELLAQHEGDAALKQYLPQMQKEYAYWMDGVENLQAGQQEKRVVKLQDGTLLNRYWDDRDTPRPESWVEDIATAKSNPNRPATEIYRDLRSAAASGWDFSSRWMDNPQQLNTLRTTSIVPVDLNSLMFKMEKILARASKAAGDNAMANQYETLANARQKGIEKYLWNDQQGWYADYDLKSHKVRNQLTAAALFPLYVNAAAKDRANKMATATKTHLLQPGGLNTTSVKSGQQWDAPNGWAPLQWVATEGLQNYGQKEVAMDISWHFLTNVQHTYDREKKLVEKYDVSTTGTGGGGGEYPLQDGFGWTNGVTLKMLDLICPKEQPCDNVPATRPTVKSATTQPSTKEAQPTP | 6.13 ± 0.28 | – | 7.29 ± 0.5 | 6.16 ± 0.95 | 5.94 ± 0.87 | 3.51 ± 0.67 | 6.59 ± 0.25 | 11.2 ± 0.94 | 6.28 ± 0.098 | 14.4 ± 0.85 | – | 14.4 ± 1.6 |
| MKSTSDLFNEIIPLGRLIHMVNQKKDRLLNEYLSPLDITAAQFKVLCSIRCAACITPVELKKVLSVDLGALTRMLDRLVCKGWVERLPNPNDKRGVLVKLTTGGAAICEQCHQLVGQDLHQELTKNLTADEVATLEYLLKKVLP | 4.66 ± 0.39 | 6.71 | > 8 | – | 4.66 ± 0.12 | – | 5.68 ± 0.62 | 11.7 ± 2.1 | 4.4 ± 0.066 | 7.75 ± 0.37 | 3.68 | 10.8 |
| MKSVFTISASLAISLMLCCTAQANDHKLLGAIAMPRNETNDLALKLPVCRIVKRIQLSADHGDLQLSGASVYFKAARSASQSLNIPSEIKEGQTTDWININSDNDNKRCVSKITFSGHTVNSSDMATLKIIGDD | – | 3.9 | – | – | 5.9 | – | 4.34 | – | – | 13 | – | 8.91 |
| MKTDTPSLETPQAARLRRRQLIRQLLERDKTPLAILFMAAVVGTLVGLAAVAFDKGVAWLQNQRMGALVHTADNYPLLLTVAFLCSAVLAMFGYFLVRKYAPEAGGSGIPEIEGALEDQRPVRWWRVLPVKFFGGLGTLGGGMVLGREGPTVQIGGNIGRMVLDIFRLKGDEARHTLLATGAAAGLAAAFNAPLAGILFIIEEMRPQFRYTLISIKAVFIGVIMSTIMYRIFNHEVALIDVGKLSDAPLNTLWLYLILGIIFGIFGPIFNKWVLGMQDLLHRVHGGNITKWVLMGGAIGGLCGLLGFVAPATSGGGFNLIPIATAGNFSMGMLVFIFVARVITTLLCFSSGAPGGIFAPMLALGTVLGTAFGMVAVELFPQYHLEAGTFAIAGMGALLAASIRAPLTGIILVLEMTDNYQLILPMIITGLGATLLAQFTGGKPLYSAILARTLAKQEAEQLARSKAASASENT | 6.2 ± 0.78 | 6.38 | 6.54 ± 0.83 | 6.03 | 5.82 ± 0.66 | – | 5.8 ± 0.28 | 13.2 ± 3.7 | 6.08 ± 0.083 | 11.3 | 6.1 ± 0.11 | 11.3 ± 0.43 |
| MKTERILGALYGQALGDAMGMPSELWPRSRVKAHFGWIDRFLPGPKENNAACYFNRAEFTDDTSMALCLADALLEREGKIDPDLIGRNILDWALRFDAFNKNVLGPTSKIALNAIRDGKPVAELENNGVTNGAAMRVSPLGCLLPARDVDSFIDDVALASSPTHKSDLAVAGAVVIAWAISRAIDGESWSAIVDSLPSIARHAQQKRITTFSASLAARLEIALKIVRNADGTESASEQLYQVVGAGTSTIESVPCAIALVELAQTDPNRCAVLCANLGGDTDTIGAMATAICGALHGVNAIDPALKAELDAVNQLDFNRYATALAKYRQQREAV | 4.09 ± 0.27 | 3.33 ± 0.15 | 3.21 ± 0.037 | 3.64 ± 0.55 | 3.4389 ± 0.00072 | 2.89 ± 0.35 | 5.04 ± 0.58 | 9.45 ± 0.66 | 3.36 ± 0.19 | 4.91 ± 0.38 | 5.45 ± 0.4 | 10.4 ± 0.37 |
| MKTFFRTVLFGSLMAVCANSYALSESEAEDMADLTAVFVFLKNDCGYQNLPNGQIRRALVFFAQQNQWDLSNYDTFDMKALGEDSYRDLSGIGIPVAKKCKALARDSLSLLAYVK [P0AA95] | 3.21 ± 0.054 | 3.39 ± 0.072 | 6.81 | 2.74 | 3.47 ± 0.12 | – | 3.61 ± 0.71 | 4.74 | 3.1 ± 0.091 | 5.56 ± 1.2 | 3.21 ± 0.85 | 5.86 ± 0.72 |
| MKTFPLQSLTIIEAQQKQFALVDSICRHFPGSEFLTGGDLGLTPGLNQPRVTQRVEQVLADAFHAQAAALVQGAGTGAIRAGLAALLKPGQRLLVHDAPVYPTTRVIIEQMGLTLITVDFNDLSALKQVVDEQQPDAALVQHTRQQPQDSYVLADVLATLRAAGVPALTDDNYAVMKVARIGCECGANVSTFSCFKLFGPEGVGAVVGDADVINRIRATLYSGGSQIQGAQALEVLRGLVFAPVMHAVQAGVSERLLALLNGGAVPEVKSAVIANAQSKVLIVEFHQPIAARVLEEAQKRGALPYPVGAESKYEIPPLFYRLSGTFRQANPQSEHCAIRINPNRSGEETVLRILRESIASI | 5.7 ± 0.96 | 5.48 | 4.47 | 4.71 | – | – | – | – | 4.59 | 8.25 | 5.35 | 12.4 |
| MKTGPLNESELEWLDDILTKYNTDHAILDVAELDGLLTAVLSSPQEIEPEQWLVAVWGGADYVPRWASEKEMTRFMNLAFQHMADTAERLNEFPEQFEPLFGLREVDGSELTIVEEWCFGYMRGVALSDWSTLPDSLKPALEAIALHGTEENFERVEKMSPEAFEESVDAIRLAALDLHAYWMAHPQEKAVQQPIKAEEKPGRNDPCPCGSGKKFKQCCLH [P0AD05] | 5.402 ± 0.046 | 5.13 ± 1.1 | 4.22 ± 0.47 | 4.39 ± 0.54 | 3.3 ± 0.53 | – | 5.21 ± 1.5 | 8.89 ± 1.9 | 3.93 ± 0.25 | 5.34 ± 1.1 | 4.67 ± 0.34 | 8.41 ± 0.26 |
| MKTIEVDDELYSYIASHTKHIGESASDILRRMLKFSAASQPAAPVTKEVRVASPAIVEAKPVKTIKDKVRAMRELLLSDEYAEQKRAVNRFMLLLSTLYSLDAQAFAEATESLHGRTRVYFAADEQTLLKNGNQTKPKHVPGTPYWVITNTNTGRKCSMIEHIMQSMQFPAELIEKVCGTI [P0AFY8] | 6.27 ± 0.64 | 5.709 ± 0.046 | 5.89 ± 0.072 | 5.19 ± 0.16 | 4.27 ± 0.23 | 2.738 ± 0.014 | 4.84 ± 0.89 | 12.7 ± 0.44 | 4.7 ± 0.42 | 8.55 ± 1.1 | 4.71 ± 0.44 | 9.12 ± 0.4 |
| MKTIFRYILFLALYSCCNTVSAYTSFIVGNNAGVDNYRGPSTAAQMTFNYTSTASNLVFYKPTQLGPTGVKMYWSYLDTGTGGGILYCNTSGRANPGPITIENAMVYSGKDYGGHKLFNTSVPGLYYTMLISRVWSAYDTITDIQSPGIYIGDPSNQEFFFSVTDSDLQTKGCNKADDYDKFWAIGGIVHNITVEFYTDTNFDPTLNQQVQLSSSSNYLYSFKAYSPGTKVVDHSNHIYVNFTLNNVKLTLPTCFTSILTGPSVNGSTVRMGEYSSGTIKNGASPVPFDISLQNCIRVRNIETKLVTGKVGTQNTQLLGNTLTGSTAAKGVGVLIEGLATSKNPLMTLKPNDTNSVYIDYETEDDTSDGVYPNQGNGTSQPLHFQATLKQDGNIAIEPGEFKATSTFQVTYP | – | – | – | – | 4.93 ± 0.34 | – | – | 4.96 | – | – | – | – |
| MKTIGLLGGMSWESTIPYYRLINEGIKQRLGGLHSAQVLLHSVDFHEIEECQRRGEWDKTGDILAEAALGLQRAGAEGIVLCTNTMHKVADAIESRCTLPFLHIADATGRAITGAGMTRVALLGTRYTMEQDFYRGRLTEQFSINCLIPEADERAKINQIIFEELCLGQFTEASRAYCAQVIARLAEQGAQGVIFGCTEIGLLVPEERSVLPVFDTAAIHAEDAVAFMLS | – | 4.02 ± 0.18 | 4.05 ± 0.27 | 4.84 ± 0.066 | 3.69 ± 0.16 | 2.27 ± 0.064 | 4.43 ± 0.24 | 7.096 ± 0.017 | 3.96 ± 0.22 | 6.72 ± 0.36 | 4.25 ± 0.4 | 8.06 ± 0.15 |

— the supplement of paper PMC11246515
